The source of these data is patent publication US20120107330A1 (published 2012).

Test [1] deals with T1, human serum albumin (HSA, Sigma-Aldrich) (human, UniProt P02768 25-609).
T1 construct: also called human albumin
Kind of test: BIAcore, HSA on CM5 chip. An outline of the steps:
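HSA immobilised on a CM5 chip by EDC/NHS amine coupling. Constructs (anti-TNFR1 dAb–linker–AlbudAb, N- to C-terminal) injected at 1 μM over the surface, with binding followed by SPR.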
(Surface plasmon resonance follows binding to a sensor surface in real time, without labels.)

For test [2], the target named is T2, rat albumin (rat, UniProt P02770 25-608).
T2 construct: also called rat serum albumin
T2 sequence (P02770 25-608 limits assumed): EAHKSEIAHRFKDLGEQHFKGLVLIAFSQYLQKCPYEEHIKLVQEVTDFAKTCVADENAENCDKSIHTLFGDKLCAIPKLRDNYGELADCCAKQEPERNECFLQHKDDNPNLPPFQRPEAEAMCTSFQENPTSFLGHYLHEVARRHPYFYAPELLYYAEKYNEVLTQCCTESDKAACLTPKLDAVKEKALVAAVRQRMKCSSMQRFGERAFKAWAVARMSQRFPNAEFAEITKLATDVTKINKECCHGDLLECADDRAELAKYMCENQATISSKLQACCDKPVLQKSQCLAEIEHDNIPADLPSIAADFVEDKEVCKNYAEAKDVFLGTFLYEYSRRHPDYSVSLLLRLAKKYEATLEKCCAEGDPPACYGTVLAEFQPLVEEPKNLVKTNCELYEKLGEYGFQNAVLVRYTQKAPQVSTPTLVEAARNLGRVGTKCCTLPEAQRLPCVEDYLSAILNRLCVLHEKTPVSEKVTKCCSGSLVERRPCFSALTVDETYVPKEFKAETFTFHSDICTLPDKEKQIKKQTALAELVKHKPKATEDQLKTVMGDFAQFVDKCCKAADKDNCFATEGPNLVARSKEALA
Kind of test: BIAcore; rat albumin.

In test [3] the target is T3, mouse serum albumin (MSA, Sigma-Aldrich) (mouse, UniProt P07724 25-608).
T3 construct: also called mouse albumin
The experiment in a line: BIAcore; mouse albumin.

In test [4] the target is T4, human TNFR1 on MRC-5 cells (human, UniProt P19438 30-455).
T4 sequence (looked up): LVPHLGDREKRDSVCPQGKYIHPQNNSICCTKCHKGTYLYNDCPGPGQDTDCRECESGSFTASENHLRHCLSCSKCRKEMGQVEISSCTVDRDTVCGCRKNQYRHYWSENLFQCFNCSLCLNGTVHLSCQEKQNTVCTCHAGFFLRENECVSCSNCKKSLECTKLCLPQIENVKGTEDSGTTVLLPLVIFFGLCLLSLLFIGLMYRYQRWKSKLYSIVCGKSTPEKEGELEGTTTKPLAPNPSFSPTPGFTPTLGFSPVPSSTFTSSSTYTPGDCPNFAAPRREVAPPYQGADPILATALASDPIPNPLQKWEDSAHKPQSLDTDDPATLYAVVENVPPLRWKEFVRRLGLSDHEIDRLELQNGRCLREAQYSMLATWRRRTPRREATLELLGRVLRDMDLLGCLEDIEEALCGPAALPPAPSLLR
The experiment in a line: cell-based or functional assay.

Test [5] addresses T3, mouse serum albumin (MSA, Sigma-Aldrich). The experiment in a line: BIAcore, MSA on CM5 chip. The method in brief: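 DOM0100 anti-TNFR1 dAb–linker–AlbudAb fusions were injected at 1 μM over MSA amine-coupled to a CM5 chip. Binding was monitored by SPR, and off-rates were determined.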
For test [6] the target is unchanged. Kind of test: BIAcore, MSA; DMS0168 (DOM7m-16 AlbudAb).
Test [7] shares this target. The experiment in a line: BIAcore, MSA; DMS0169 (DOM7h-11-12 AlbudAb).
In test [8] the target is T5, human TNFR1 (recombinant, R&D Systems cat no. 636-R1/CF, biotinylated) (human, UniProt P19438 30-211, limits assumed, biotinylated with EZ-Link NHS-LC-LC-biotin).
T5 construct: it is not tied to the BIAcore reagent; also called p55; hTNFR1
T5 sequence (looked up): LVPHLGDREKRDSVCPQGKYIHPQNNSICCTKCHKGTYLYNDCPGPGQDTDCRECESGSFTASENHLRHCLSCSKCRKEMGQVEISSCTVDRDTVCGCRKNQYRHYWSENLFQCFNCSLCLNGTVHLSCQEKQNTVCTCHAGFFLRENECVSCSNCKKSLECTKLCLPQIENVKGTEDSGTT
The experiment in a line: BIAcore, human TNFR1 on SA chip.

In test [9] the target is T5, human TNFR1 (recombinant, R&D Systems …). The experiment in a line: BIAcore, human TNFR1 on SA chip. The text has this:
(§1) A significant advantage for an anti-TNFR1 dAb would be cross-reactivity between different species. Given the limited conservation of the sequence of the extracellular domain of TNFR1 between mouse, dog, Cynomologus monkey and human (FIG. 6), it would be exceptional for any antibody or single variable domain to recognize TNFR1 of these different species at similar affinities. […] For each of these experiments the TNFR1 was biotinylated using EZ-Link NHS-LC-LC-biotin (Pierce cat no. 21343), according to the manufacturer's instructions, followed by binding of the biotinylated TNFR1 to a Streptavidin-coated BIAcore chip. […] Examples for binding to the different species are shown in FIGS. 7 and 8, with a summary of the results in Table 2.
The source holds these as a separate data set.

Test [10] has as its target dog TNFR1 (recombinant, R&D Systems cat no. 4017-TR-025/CF, biotinylated) (dog). The experiment in a line: BIAcore, dog TNFR1 on SA chip.
Test [11] concerns the target T6, peptide D2 (domain-1 peptide of human TNFR1) (human, cysteine pairing not given here; also: biotinylated, position not given here).
T6 construct: also called peptide 1
T6 peptide: SGSGNSICCTKCHKGTYLY
Kind of test: BIAcore, biotinylated peptide D2 on SA chip, dAb at 2.5 µM.

For test [12], the target named is T7, peptide E5 (overlapping domain-3 peptide of human TNFR1) (human, also: biotinylated, position not given here).
T7 construct: also called peptide 3
T7 peptide: SGSGNQYRHYWSENLFQCF
The experiment in a line: BIAcore, biotinylated peptide E5 on SA chip, dAb at 2.5 µM.

The target of test [13] is T8, peptide A3 (negative control fragment of human TNFR1) (human, cysteine pairing not given here; also: biotinylated, position not given here).
T8 construct: also called control peptide
T8 peptide: SGSGNDCPGPGQDTDCREC
The experiment in a line: BIAcore, biotinylated peptide A3 on SA chip.

The target in test [14] is T5, human TNFR1 (recombinant, R&D Systems …). The experiment in a line: BIAcore, human TNFR1.
Test [15] concerns the target T4, human TNFR1 on MRC-5 cells. Kind of test: cell-based or functional assay. This is another data set of the same source.
The target in test [16] is T9, peptide D5 (domain-3 peptide of human TNFR1) (human, also: biotinylated, position not given here).
T9 construct: also called peptide 2
T9 peptide: SGSGCRKNQYRHYWSENLF
The experiment in a line: BIAcore, biotinylated peptide D5 on SA chip, dAb at 2.5 µM.

In test [17] the target is T10, mouse TNFR1 (recombinant, R&D Systems cat no. 425-R1-050/CF, biotinylated) (mouse, UniProt P25118 22-212, biotinylated with EZ-Link NHS-LC-LC-biotin).
T10 construct: also called murine TNFR1; biotinylated mouse TNFR1
T10 sequence (looked up): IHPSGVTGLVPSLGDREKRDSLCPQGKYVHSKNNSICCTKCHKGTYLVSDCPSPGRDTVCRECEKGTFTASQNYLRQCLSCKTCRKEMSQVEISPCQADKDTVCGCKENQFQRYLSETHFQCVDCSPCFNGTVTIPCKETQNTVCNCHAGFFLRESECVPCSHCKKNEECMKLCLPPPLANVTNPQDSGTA
Kind of test: BIAcore, mouse TNFR1 on SA chip.
Excerpt: as §1

Test [18] deals with T7, peptide E5 (overlapping domain-3 …). Kind of test: BIAcore, biotinylated peptide E5 on SA chip.
For test [19], the target named is T11, TNFR1-Fc fusion (R&D Systems Cat #372-RI) (human, UniProt P19438 30-211).
T11 construct: range 30-211; also called TNFR1-containing beads; not shown: Human IgG1 (Pro100-Lys330)
Kind of test: receptor binding assay: TNFR1-Fc on beads incubated with the dAb, then with TNFα (blocked ligand); % inhibition of TNFα binding to TNFR1.

In test [20] the target is T11, TNFR1-Fc fusion (R&D Systems Cat …). The experiment in a line: receptor binding assay: TNFR1-Fc on anti-IgG beads, dAb titrated, blocked ligand TNFα detected with biotinylated anti-TNFα and fluorescent streptavidin (FMAT). The method, then: The potency of the dAbs was determined against human TNFR1 in a receptor binding assay. This assay measures the binding of TNF-alpha to TNFR1 and the ability of soluble dAb to block this interaction. The TNFR1-Fc fusion (R&D Systems, Cat#372-RI.) is captured on a bead pre-coated with goat anti-human IgG (Spherotech, Cat#HUP-60-S). The receptor coated beads are incubated with TNF-alpha (10 ng/ml, Peprotech Cat#300-01A), dAb, biotin conjugated anti-TNF-alpha (Hycult Biotechnology Cat#HM2027.) and streptavidin Alexa Fluor 647 (Molecular Probes, (Invitrogen) Cat#32357) in a black sided clear bottomed 384 well plate. After 6 hours the plate is read on the ABI 8200 Cellular Detection system and bead associated fluorescence determined. If the dAb blocks TNF-alpha binding to TNFR1 the fluorescent intensity will be reduced.

Test [21] has as its target T6, peptide D2 (domain-1 peptide of human …). The experiment in a line: BIAcore, biotinylated peptide D2 on SA chip.
Test [22] has as its target T9, peptide D5 (domain-3 peptide of human …). Kind of test: BIAcore, biotinylated peptide D5 on SA chip.
The target of test [23] is T8, peptide A3 (negative control fragment …). The experiment in a line: BIAcore, biotinylated peptide A3 on SA chip.

Like-named read-outs stand apart in the source and are kept apart here. Ends that are not written are not given here.

T1 sequence (P02768 25-609 limits assumed): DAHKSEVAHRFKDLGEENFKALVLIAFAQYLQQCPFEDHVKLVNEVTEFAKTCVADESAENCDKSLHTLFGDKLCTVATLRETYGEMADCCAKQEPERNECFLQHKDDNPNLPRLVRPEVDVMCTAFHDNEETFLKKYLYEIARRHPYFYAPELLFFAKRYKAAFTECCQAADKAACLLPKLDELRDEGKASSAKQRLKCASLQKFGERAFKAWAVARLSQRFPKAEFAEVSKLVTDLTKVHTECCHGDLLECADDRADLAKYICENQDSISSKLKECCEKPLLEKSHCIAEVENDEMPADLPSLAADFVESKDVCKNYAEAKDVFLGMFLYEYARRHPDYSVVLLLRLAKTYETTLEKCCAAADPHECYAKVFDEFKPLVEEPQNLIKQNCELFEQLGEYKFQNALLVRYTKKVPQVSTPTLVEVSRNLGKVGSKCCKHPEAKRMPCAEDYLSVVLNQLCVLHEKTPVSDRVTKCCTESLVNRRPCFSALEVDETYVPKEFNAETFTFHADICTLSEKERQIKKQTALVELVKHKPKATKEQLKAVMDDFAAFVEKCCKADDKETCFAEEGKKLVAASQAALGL

B1: DMS0182 (bispecific antibody)
chain: EVQLLESGGGLVQPGGSLRLSCAASGFTFVKYSMGWVRQAPGKGPEWVSQISNTGDRTYYADSVKGRFTISRDNSKNTLYLQMNSLRAEDTAVYYCAIYTGRWEPFDYWGQGTLVTVSSASTDIQMTQSPSSLSASVGDRVTITCRASRPIGTTLSWYQQKPGKAPKLLIWFGSRLQSGVPSRFSGSGSGTDFTLTISSLQPEDFATYYCAQAGTHPTTFGQGTKVEIKRAAAEQKLISEEDLN
notes: in-line fusion of an anti-TNFR1 dAb and an anti-serum albumin dAb (AlbudAb)
Consider B1, for which the koff (usually the first-order rate constant of dissociation) was found to be 0.17 s⁻¹ in test [1] and 0.75 s⁻¹ in [5]. Further, the Kd in test [2] and in test [3] was greater than 1000 nM throughout. Besides, the “ND50 (MRC5)” value in test [4] was found to be 6 nM.

B2: DMS0168 (bispecific antibody)
chain: EVQLLESGGGLVQPGGSLRLSCAASGFTFVKYSMGWVRQAPGKGLEWVSQISNTADRTYYAHSVKGRFTISRDNSKNTLYLQMNSLRAEDTAVYYCAIYTGRWVPFEYWGQGTLVTVSSASTSGPSDIQMTQSPSSLSASVGDRVTITCRASQSIIKHLKWYQQKPGKAPKLLIYGASRLQSGVPSRFSGSGSGTDFTLTISSLQPEDFATYYCQQGARWPQTFGQGTKVEIKRAAAEQKLISEEDLN
notes: anti-TNFR1 dAb / AlbudAb in-line fusion
In the case of B2, in [4], the “ND50 (MRC5)” value came to 16 nM. In addition, in test [6], the Kd – broadly, a measure of binding affinity in units of concentration – was roughly 200 nM.

B3: DMS0169 (bispecific antibody)
chain: EVQLLESGGGLVQPGGSLRLSCAASGFTFVKYSMGWVRQAPGKGLEWVSQISNTADRTYYAHSVKGRFTISRDNSKNTLYLQMNSLRAEDTAVYYCAIYTGRWVPFEYWGQGTLVTVSSASTSGPSDIQMTQSPSSLSASVGDRVTITCRASRPIGTMLSWYQQKPGKAPKLLILFGSRLQSGVPSRFSGSGSGTDFTLTISSLQPEDFATYYCAQAGTHPTTFGQGTKVEIKRAAAEQKLISEEDLN
notes: as for B2
Regarding B3, in test [4], the “ND50 (MRC5)” value is 2.7 nM. The molecule also displayed a Kd in test [7] of roughly 200 nM.

B4: DOM1h-543 (other)
VH: EVQLLESGGGLVQPGGSLRLSCAASGFTFMRYRMHWVRQAPGKGLEWVSSIDSNGSSTYYADSVKGRFTISRDNSKNTLYLQMNSLRAEDTAVYYCAKDRTERSPVFDYWGQGTLVTVSS
notes: VH dAb
For the molecule B4, in test [8], the binding result is given as “binds”.

B5: DOM1h-574-16 (other)
VH: EVQLLESGGGLVQPGGSLRLSCAASGFTFVKYSMGWVRQAPGKGPEWVSQISNTGDRTYYADSVKGRFTISRDNSKNTLYLQMNSLRAEDTAVYYCAIYTGRWEPFDYWGQGTLVTVSS
notes: VH dAb; also called DOM1h-57-16 [sic]; the DOM0100 dAb
With B5, the Kd in test [9] turned out to be 1 nM; in test [10] it was 20 nM; in test [14], 1 nM; in test [17] it was 20 nM. Moreover, the binding result in test [11] is reported as “binds”; in [12], “binds”; in [13], “no binding (tested: 2.5 µM)”; in [16], “binds”. The “MRC-5 ND50 (TNFα-mediated IL-8 release)” value in test [15] amounted to 8 nM.

B6: DOM1h-131-511 (other)
VH: EVQLLESGGGLVQPGGSLRLSCAASGFTFAHETMVWVRQAPGKGLEWVSHIPPVGQDPFYADSVKGRFTISRDNSKNTLYLQMNSLRAEDTAVYYCALLPKRGPWFDYWGQGTLVTVSS
notes: also called control dAb
B6: the binding result in test [18], in test [21], in [22] and in test [23] was “no binding (tested: 2.5 µM)” in each case. In addition, the “IC50 (read off the curve)” value in [19] and in test [20] was roughly 0.1 nM each time.
